T1: GRIP1_3, Q9Y3R0
T1 sequence (Q9Y3R0 247-346, limits assumed, looked up): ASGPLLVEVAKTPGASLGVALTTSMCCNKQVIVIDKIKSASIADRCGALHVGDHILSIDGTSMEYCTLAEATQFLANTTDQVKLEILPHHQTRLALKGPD

T2: DFNB31_2, Q9P202
T2 sequence (Q9P202 274-371, limits assumed, looked up): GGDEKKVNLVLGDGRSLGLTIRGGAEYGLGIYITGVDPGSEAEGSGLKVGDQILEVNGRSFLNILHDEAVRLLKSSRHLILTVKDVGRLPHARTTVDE

T3: MPP7, Q5T2T1
T3 sequence (Q5T2T1 134-230, limits assumed, looked up): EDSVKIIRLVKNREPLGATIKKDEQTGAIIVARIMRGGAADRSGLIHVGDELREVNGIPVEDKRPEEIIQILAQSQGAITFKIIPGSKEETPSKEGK

T4: LIN7B, Q9HAP6
T4 sequence (Q9HAP6 88-185, limits assumed, looked up): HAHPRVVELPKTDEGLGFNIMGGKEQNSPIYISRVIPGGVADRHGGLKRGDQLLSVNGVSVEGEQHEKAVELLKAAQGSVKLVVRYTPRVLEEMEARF

T5: LIN7C, Q9NUP9
T5 sequence (Q9NUP9 88-185, limits assumed, looked up): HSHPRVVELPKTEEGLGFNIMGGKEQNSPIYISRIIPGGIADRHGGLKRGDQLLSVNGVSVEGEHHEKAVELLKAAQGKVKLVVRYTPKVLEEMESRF

T6: ARHGAP21, Q5T5U3
T6 sequence (Q5T5U3 45-169, limits assumed, looked up): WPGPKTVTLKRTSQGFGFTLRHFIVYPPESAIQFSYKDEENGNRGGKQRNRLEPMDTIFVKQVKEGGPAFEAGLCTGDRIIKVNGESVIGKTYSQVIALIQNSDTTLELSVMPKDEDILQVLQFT

T7: HTRA3, P83110
T7 sequence (P83110 354-453, limits assumed, looked up): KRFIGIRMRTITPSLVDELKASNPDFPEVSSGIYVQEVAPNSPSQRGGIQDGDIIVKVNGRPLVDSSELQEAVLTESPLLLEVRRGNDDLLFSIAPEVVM

T8: APBA1_1, Q02410
T8 sequence (Q02410 651-752, limits assumed, looked up): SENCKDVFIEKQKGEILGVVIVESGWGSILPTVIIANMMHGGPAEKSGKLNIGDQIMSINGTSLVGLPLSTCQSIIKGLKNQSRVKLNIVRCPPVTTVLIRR

T9: PDZRN3_1, Q9UPQ7
T9 sequence (Q9UPQ7 244-349, limits assumed, looked up): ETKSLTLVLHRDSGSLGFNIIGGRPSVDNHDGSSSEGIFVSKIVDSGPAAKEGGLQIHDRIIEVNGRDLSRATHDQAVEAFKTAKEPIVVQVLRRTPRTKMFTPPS

T10: GRIP1_4, Q9Y3R0
T10 sequence (Q9Y3R0 467-571, limits assumed, looked up): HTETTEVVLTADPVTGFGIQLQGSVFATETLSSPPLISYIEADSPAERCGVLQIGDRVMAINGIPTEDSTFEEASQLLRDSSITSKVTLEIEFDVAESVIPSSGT

T11: DLG3_2, Q92796
T11 sequence (Q92796 221-321, limits assumed, looked up): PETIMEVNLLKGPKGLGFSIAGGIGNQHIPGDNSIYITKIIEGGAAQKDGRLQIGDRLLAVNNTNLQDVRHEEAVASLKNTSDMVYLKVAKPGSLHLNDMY


How the values were obtained:
Assay in all cases: holdup assay
Design in all cases: key: below the threshold = too weak to quantify, mostly under pKd 3.1 to 4
Details in all cases: plain residues with an end cap or a label only (N-terminal biotin on a linker: ado-ado)
MAGI2_4, Q86UL8 = target: MAGI2_4, Q86UL8
GRID2IP_1, A4D2P6 = target: GRID2IP_1, A4D2P6
FRMPD3, Q5JV73 = target: FRMPD3, Q5JV73
GRIP1_3, Q9Y3R0 = target: T1, GRIP1_3, Q9Y3R0
DFNB31_2, Q9P202 = target: T2, DFNB31_2, Q9P202
MAGI2_3, Q86UL8 = target: MAGI2_3, Q86UL8
NHERF4_2, Q86UT5 = target: NHERF4_2, Q86UT5
FRMPD4, Q14CM0 = target: FRMPD4, Q14CM0
DLG4_1, P78352 = target: DLG4_1, P78352
MPP7, Q5T2T1 = target: T3, MPP7, Q5T2T1
GRIP2_5, Q9C0E4 = target: GRIP2_5, Q9C0E4
LIN7B, Q9HAP6 = target: T4, LIN7B, Q9HAP6
LIN7C, Q9NUP9 = target: T5, LIN7C, Q9NUP9
GORASP2, Q9H8Y8 = target: GORASP2, Q9H8Y8
LNX1_1, Q8TBB1 = target: LNX1_1, Q8TBB1
GIPC2, Q8TF65 = target: GIPC2, Q8TF65
ARHGAP21, Q5T5U3 = target: T6, ARHGAP21, Q5T5U3
HTRA3, P83110 = target: T7, HTRA3, P83110
APBA1_1, Q02410 = target: T8, APBA1_1, Q02410
Inadl_2, Q8NI35 = target: Inadl_2, Q8NI35
GORASP1, Q9BQQ3 = target: GORASP1, Q9BQQ3
PDZRN3_1, Q9UPQ7 = target: T9, PDZRN3_1, Q9UPQ7
GRIP1_4, Q9Y3R0 = target: T10, GRIP1_4, Q9Y3R0
DLG3_2, Q92796 = target: T11, DLG3_2, Q92796
CASK, O14936 = target: CASK, O14936
Chain of CASK, O14936 (O14936 487-570): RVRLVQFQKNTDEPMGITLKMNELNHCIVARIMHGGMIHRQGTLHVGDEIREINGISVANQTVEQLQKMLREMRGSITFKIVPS

Chain of FRMPD4, Q14CM0 (Q14CM0 67-160): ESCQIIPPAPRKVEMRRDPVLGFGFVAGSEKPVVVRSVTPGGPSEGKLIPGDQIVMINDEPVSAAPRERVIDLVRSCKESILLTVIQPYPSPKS
Chain of GIPC2, Q8TF65 (Q8TF65 112-203): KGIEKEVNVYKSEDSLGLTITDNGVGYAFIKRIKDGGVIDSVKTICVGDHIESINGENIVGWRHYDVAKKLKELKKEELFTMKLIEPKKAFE
Chain of GORASP1, Q9BQQ3 (Q9BQQ3 1-208): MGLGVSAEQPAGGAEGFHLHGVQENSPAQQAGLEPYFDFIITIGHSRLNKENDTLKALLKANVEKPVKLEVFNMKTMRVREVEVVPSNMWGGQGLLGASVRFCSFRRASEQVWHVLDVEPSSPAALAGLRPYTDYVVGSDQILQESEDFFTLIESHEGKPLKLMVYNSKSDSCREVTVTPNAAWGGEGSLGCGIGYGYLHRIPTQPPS
Chain of MAGI2_4, Q86UL8 (Q86UL8 772-865): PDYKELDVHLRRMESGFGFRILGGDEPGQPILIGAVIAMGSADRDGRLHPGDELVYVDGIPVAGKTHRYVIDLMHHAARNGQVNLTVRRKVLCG
Chain of LNX1_1, Q8TBB1 (Q8TBB1 261-371): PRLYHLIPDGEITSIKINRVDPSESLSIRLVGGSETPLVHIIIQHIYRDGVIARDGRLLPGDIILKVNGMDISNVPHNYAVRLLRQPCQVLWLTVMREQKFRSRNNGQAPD
Chain of Inadl_2, Q8NI35 (Q8NI35 238-335): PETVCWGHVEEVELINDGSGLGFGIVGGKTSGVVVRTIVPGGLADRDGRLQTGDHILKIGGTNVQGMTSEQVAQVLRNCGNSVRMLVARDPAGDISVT
Chain of NHERF4_2, Q86UT5 (Q86UT5 220-308): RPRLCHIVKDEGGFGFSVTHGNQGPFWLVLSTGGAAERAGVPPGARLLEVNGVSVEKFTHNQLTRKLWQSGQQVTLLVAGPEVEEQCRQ
Chain of FRMPD3, Q5JV73 (Q5JV73 12-100): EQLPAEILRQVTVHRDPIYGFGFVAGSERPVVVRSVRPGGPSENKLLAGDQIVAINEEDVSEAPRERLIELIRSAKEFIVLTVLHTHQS
Chain of GRIP2_5, Q9C0E4 (Q9C0E4 544-642): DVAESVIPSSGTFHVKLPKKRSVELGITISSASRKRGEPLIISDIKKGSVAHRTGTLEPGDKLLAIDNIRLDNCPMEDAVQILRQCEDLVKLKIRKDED
Chain of DLG4_1, P78352 (P78352 62-152): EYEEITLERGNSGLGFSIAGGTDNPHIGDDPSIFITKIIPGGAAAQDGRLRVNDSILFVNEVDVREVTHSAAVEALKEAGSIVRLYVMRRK
Chain of GRID2IP_1, A4D2P6 (A4D2P6 1-87): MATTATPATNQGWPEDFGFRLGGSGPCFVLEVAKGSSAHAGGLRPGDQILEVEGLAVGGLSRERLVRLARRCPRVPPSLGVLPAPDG
Chain of MAGI2_3, Q86UL8 (Q86UL8 600-682): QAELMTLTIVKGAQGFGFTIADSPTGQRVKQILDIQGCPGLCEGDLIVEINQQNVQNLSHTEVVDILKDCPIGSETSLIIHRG

pKd (MAGI2_4, Q86UL8)	pKd (GRID2IP_1, A4D2P6)	pKd (FRMPD3, Q5JV73)	pKd (GRIP1_3, Q9Y3R0)	pKd (DFNB31_2, Q9P202)	pKd (MAGI2_3, Q86UL8)	pKd (NHERF4_2, Q86UT5)	pKd (FRMPD4, Q14CM0)	pKd (DLG4_1, P78352)	pKd (MPP7, Q5T2T1)	pKd (GRIP2_5, Q9C0E4)	pKd (LIN7B, Q9HAP6)	pKd (LIN7C, Q9NUP9)	pKd (GORASP2, Q9H8Y8)	pKd (LNX1_1, Q8TBB1)	pKd (GIPC2, Q8TF65)	pKd (ARHGAP21, Q5T5U3)	pKd (HTRA3, P83110)	pKd (APBA1_1, Q02410)	pKd (Inadl_2, Q8NI35)	Binder	also measured
below the threshold	below the threshold	below the threshold	below the threshold	below the threshold	below the threshold	below the threshold	below the threshold	below the threshold	below the threshold	below the threshold	3.75	3.69	below the threshold	below the threshold	3.73	below the threshold	4.6	below the threshold	below the threshold	RKPKPSSSCC [RAB9A, P51151]	pKd (GORASP1, Q9BQQ3): below the threshold; pKd (PDZRN3_1, Q9UPQ7): below the threshold; pKd (GRIP1_4, Q9Y3R0): below the threshold; pKd (DLG3_2, Q92796): 4.1; pKd (CASK, O14936): below the threshold
3.54	below the threshold	below the threshold	below the threshold	below the threshold	below the threshold	below the threshold	below the threshold	below the threshold	below the threshold	below the threshold	below the threshold	below the threshold	below the threshold	3.52	3.74	4.1	below the threshold	below the threshold	below the threshold	MLSKQSESAI [FLVCR1, Q9Y5Y0]	pKd (GORASP1, Q9BQQ3): below the threshold; pKd (PDZRN3_1, Q9UPQ7): 3.78; pKd (GRIP1_4, Q9Y3R0): below the threshold; pKd (DLG3_2, Q92796): 3.68; pKd (CASK, O14936): below the threshold
3.52	below the threshold	below the threshold	below the threshold	below the threshold	below the threshold	below the threshold	below the threshold	below the threshold	below the threshold	below the threshold	4.5	4.36	below the threshold	below the threshold	below the threshold	below the threshold	below the threshold	below the threshold	below the threshold	TASPAKETSF [SLC2A7, Q6PXP3]	pKd (GORASP1, Q9BQQ3): below the threshold; pKd (PDZRN3_1, Q9UPQ7): below the threshold; pKd (GRIP1_4, Q9Y3R0): below the threshold; pKd (DLG3_2, Q92796): 4.25; pKd (CASK, O14936): below the threshold
below the threshold	below the threshold	below the threshold	below the threshold	3.57	below the threshold	below the threshold	below the threshold	3.92	4.22	below the threshold	4.35	4.5	3.55	4.43	4.11	below the threshold	below the threshold	below the threshold	below the threshold	QSARLWETSI [ADAM22, Q9P0K1]	pKd (GORASP1, Q9BQQ3): below the threshold; pKd (PDZRN3_1, Q9UPQ7): 4.87; pKd (GRIP1_4, Q9Y3R0): below the threshold; pKd (DLG3_2, Q92796): 4.32; pKd (CASK, O14936): below the threshold
3.89	below the threshold	below the threshold	below the threshold	below the threshold	below the threshold	below the threshold	below the threshold	below the threshold	below the threshold	below the threshold	below the threshold	4.01	below the threshold	below the threshold	below the threshold	4.1	below the threshold	below the threshold	below the threshold	YRLAQESGLV [ABCC6, O95255]	pKd (GORASP1, Q9BQQ3): below the threshold; pKd (PDZRN3_1, Q9UPQ7): below the threshold; pKd (GRIP1_4, Q9Y3R0): below the threshold; pKd (DLG3_2, Q92796): below the threshold; pKd (CASK, O14936): below the threshold
below the threshold	below the threshold	below the threshold	below the threshold	below the threshold	below the threshold	below the threshold	below the threshold	below the threshold	below the threshold	below the threshold	3.7	below the threshold	below the threshold	3.86	below the threshold	below the threshold	4.24	below the threshold	below the threshold	SAAKVLTSMC [GHRHR, Q02643]	pKd (GORASP1, Q9BQQ3): below the threshold; pKd (PDZRN3_1, Q9UPQ7): below the threshold; pKd (GRIP1_4, Q9Y3R0): below the threshold; pKd (DLG3_2, Q92796): 4.12; pKd (CASK, O14936): below the threshold
